Results reported in PMC4414150, “Zfra activates memory Hyal-2+ CD3− CD19− spleen cells to block cancer growth, stemness, and metastasis in vivo” (Oncotarget, 2015).

Biological target: T1, Zfra16–31
T1 construct: Zfra, residues 16-31; also called Zfra peptide of amino acid #16–31; source: synthetic peptide (manual synthesis, Genemed Synthesis)
T1 peptide: FRAHTQKNAATPFLAN
Test: SDS-PAGE of the incubated peptide (ladder of polymers); peptides alone (2 mM in 100 μl PBS) or mixed together, room temperature, 24 hr (legend; the text says sterile MilliQ water, 48 hr); non-reducing and reducing gels; less polymerization in MilliQ water
Details: both partners purified

binding result: binds
B1: Zfra1–15 (peptide)
peptide: MSSRRSSSCKYCEQD
notes: Zfra, residues 1-15; also called Zfra peptide of amino acid #1–15; source: synthetic peptide (manual synthesis, Genemed Synthesis)
